From IntAct's records for PubMed 20696164

B1: E3 ubiquitin-protein ligase SH3RF1 (Homo sapiens), Q7Z6J0 (parent)
chain: MDESALLDLLECPVCLERLDASAKVLPCQHTFCKRCLLGIVGSRNELRCPECRTLVGSGVEELPSNILLVRLLDGIKQRPWKPGPGGGSGTNCTNALRSQSSTVANCSSKDLQSSQGGQQPRVQSWSPPVRGIPQLPCAKALYNYEGKEPGDLKFSKGDIIILRRQVDENWYHGEVNGIHGFFPTNFVQIIKPLPQPPPQCKALYDFEVKDKEADKDCLPFAKDDVLTVIRRVDENWAEGMLADKIGIFPISYVEFNSAAKQLIEWDKPPVPGVDAGECSSAAAQSSTAPKHSDTKKNTKKRHSFTSLTMANKSSQASQNRHSMEISPPVLISSSNPTAAARISELSGLSCSAPSQVHISTTGLIVTPPPSSPVTTGPSFTFPSDVPYQAALGTLNPPLPPPPLLAATVLASTPPGATAAAAAAGMGPRPMAGSTDQIAHLRPQTRPSVYVAIYPYTPRKEDELELRKGEMFLVFERCQDGWFKGTSMHTSKIGVFPGNYVAPVTRAVTNASQAKVPMSTAGQTSRGVTMVSPSTAGGPAQKLQGNGVAGSPSVVPAAVVSAAHIQTSPQAKVLLHMTGQMTVNQARNAVRTVAAHNQERPTAAVTPIQVQNAAGLSPASVGLSHHSLASPQPAPLMPGSATHTAAISISRASAPLACAAAAPLTSPSITSASLEAEPSGRIVTVLPGLPTSPDSASSACGNSSATKPDKDSKKEKKGLLKLLSGASTKRKPRVSPPASPTLEVELGSAELPLQGAVGPELPPGGGHGRAGSCPVDGDGPVTTAVAGAALAQDAFHRKASSLDSAVPIAPPPRQACSSLGPVLNESRPVVCERHRVVVSYPPQSEAELELKEGDIVFVHKKREDGWFKGTLQRNGKTGLFPGSFVENI
B2: E3 ubiquitin-protein ligase SH3RF3 (Homo sapiens), Q8TEJ3 (parent)
chain: MLLGASWLCASKAAAAAAQSEGDEDRPGERRRRRAAATAAGAGEDMDESSLLDLLECSVCLERLDTTAKVLPCQHTFCRRCLESIVCSRHELRCPECRILVGCGVDELPANILLVRLLDGIRQRPRAGTSPGGSPPARPIPGQSAAPTLAGGGGGAAGSTPGSPVFLSAAAGSTAGSLRELATSRTAPAAKNPCLLPYGKALYSYEGKEPGDLKFNKGDIIVLRRKVDEQWYHGELHGTQGFLPASYIQCIQPLPHAPPQGKALYDFEMKDKDQDKDCLTFTKDEILTVLRRVDENWAEGMLGDKIGIFPLLYVELNDSAKQLIEMDKPCPAAASSCNASLPSDSGAVASVAPSPTLSSSGAVSAFQRRVDGKKNTKKRHSFTALSVTHRSSQAASHRHSMEISAPVLISSSDPRAAARIGDLAHLSCAAPTQDVSSSAGSTPTAVPRAASVSGEQGTPPKVQLPLNVYLALYAYKPQKSDELELHKGEMYRVLEKCQDGWFKGASLRTGVSGVFPGNYVTPVSRVPAGGAGPPRNNVVGGSPLAKGITTTMHPGSGSLSSLATATRPALPITTPQAHAQHPTASPPTGSCLRHSAQPTASQARSTISTAAHSAAQAQDRPTATVSPLRTQNSPSRLPATSLRPHSVVSPQHSHQPPVQMCPRPAIPLTSAASAITPPNVSAANLNGEAGGGPIGVLSTSSPTNTGCKLDEKKSEKKEKKSGLLKLLAGASTKKKSRSPPSVSPTHDPQVAVDALLQGAVGPEVSSLSIHGRAGSCPIESEMQGAMGMEPLHRKAGSLDLNFTSPSRQAPLSMAAIRPEPKLLPRERYRVVVSYPPQSEAEIELKEGDIVFVHKKREDGWYKGTLQRNGRTGLFPGSFVESF

Variants of: B1
Details: with ubc_human UBC

Variant | effect of a mutation on the interaction
H30A | decreasing interaction
C28A | decreasing interaction

Variants of: B2
Details: with rac1_human RAC1, P63000

Variant | effect of a mutation on the interaction
P414A | decreasing interaction

Variants of: B2
Details: with rac1_human RAC1, P63000
Remark: another data set of the same source

Variant | effect of a mutation on the interaction
P406A | disrupting interaction
S404P | disrupting interaction
I403N | disrupting interaction

Variants of: B2
Details: with ubc_human UBC

Variant | effect of a mutation on the interaction
C73A | decreasing interaction
H75A | decreasing interaction

Variants of: B2
Details: with rac1_human RAC1, P63000
Remark: another data set of the same source

Variant | effect of a mutation on the interaction
L385A | decreasing interaction
